Measurements taken from patent US20080207488A1, “Method for Detecting Peptides Comprising a Cross-B Structure” (priority 2005, published 2008).
Values belong to the molecule of their own block, whether it stands above or below them. Peptide text beside a SMILES is read from it.

Assays:
factor XII = target: T1, factor XII (Homo sapiens, UniProt P00748); experiment: Chromogenic factor XII/prekallikrein activation assay (Chromozym-PK); format: biochemical; settings: peptide aggregates and surfaces
T1 construct: purchased Calbiochem, EMD Biosciences #233490
T1 sequence (P00748 20-615): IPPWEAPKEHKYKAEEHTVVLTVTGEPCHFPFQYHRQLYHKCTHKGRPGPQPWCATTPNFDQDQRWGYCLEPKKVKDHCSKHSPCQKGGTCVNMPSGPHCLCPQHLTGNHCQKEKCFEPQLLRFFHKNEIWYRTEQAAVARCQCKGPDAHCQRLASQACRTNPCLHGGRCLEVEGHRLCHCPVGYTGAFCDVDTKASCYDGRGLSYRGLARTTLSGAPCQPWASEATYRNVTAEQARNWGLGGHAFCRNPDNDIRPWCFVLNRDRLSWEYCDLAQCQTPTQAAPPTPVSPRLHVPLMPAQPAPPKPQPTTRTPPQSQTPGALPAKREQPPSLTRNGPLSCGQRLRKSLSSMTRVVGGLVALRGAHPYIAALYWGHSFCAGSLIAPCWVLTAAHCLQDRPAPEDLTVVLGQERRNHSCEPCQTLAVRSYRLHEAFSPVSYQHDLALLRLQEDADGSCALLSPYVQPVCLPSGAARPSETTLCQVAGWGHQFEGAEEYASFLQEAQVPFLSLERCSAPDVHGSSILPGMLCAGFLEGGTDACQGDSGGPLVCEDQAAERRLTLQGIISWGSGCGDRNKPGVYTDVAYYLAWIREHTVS
Procedure: (§1) Plasmin (Pls) activity was assayed as described^7. Peptides and proteins that were tested for their stimulatory ability were regularly used at 100 μg ml^−1. […] Chromogenic substrate S-2251 (Chromogenix, Instrumentation Laboratory SpA, Milano, Italy) was used to measure Pls activity. Conversion of zymogen factor XII (#233490, Calbiochem, EMD Biosciences, Inc., San Diego, Calif.) to proteolytically active factor XII (factor XIIa) was assayed by measurement of the conversion of chromogenic substrate Chromozym-PK (Roche Diagnostics, Almere, The Netherlands) by kallikrein. Chromozym-PK was used at a concentration of 0.3 mM. Factor XII, human plasma prekallikrein (#529583, Calbiochem) and human plasma cofactor high-molecular weight kininogen (#422686, Calbiochem) were used at concentrations of 1 μg ml^−1. […] Assays were performed using microtiter plates (Costar, Cambridge, Mass., USA). Peptides and proteins were tested for their ability to activate factor XII. 150 μg ml^−1 kaolin, an established activator of factor XII was used as positive control and solvent (H2O) as negative control. The conversion of Chromozym-PK was recorded kinetically at 37° C. for at least 60 minutes. Assays were done in duplicate. […] Alternatively, chromogenic substrate S-2222 (Chromogenix) was used to follow the activity of factor XII itself. With S-2222, activation of factor XII in plasma was measured, using 60% v/v plasma, diluted with substrate and H2O with or without potential cofactor. Furthermore, auto-activation of factor XII was measured by incubating 53 μg ml^−1 purified factor XII in 50 mM Tris-HCl buffer pH 7.5 with 1 mM EDTA and 0.001% v/v Triton-X100, with S-2222 and H2O with or without potential cofactor.
(§2) Formulated protein therapeutics were obtained from the local hospital pharmacy and were used as supplied by the manufacturers. […] Lyophilized therapeutics were dissolved according to the manufacturers recommendations. […] Other protein therapeutics were only kept at 4° C., and assayed for the presence of cross-β structure conformation at shown time points. Enhancement in fluorescence of ThT and Congo red was measured with all formulated protein therapeutics. For this purpose, proteins were diluted to the indicated concentrations. […] Zinc-insulin was diluted tenfold in the activation assay, GH was diluted to a final concentration of 500 μg ml^−1. Activation of factor XII and prekallikrein by the therapeutics was tested in the chromogenic factor XII assay (see above). […] After coating, plates were blocked with Blocking Reagent (Roche Diagnostics, Almere, The Netherlands).

[1] = target: T2, human fibronectin finger 4,5 (Fn F4,5) fragment (Homo sapiens, UniProt P02751); experiment: ELISA, binding of fibronectin F4,5 to coated (mis)folded proteins; settings: coated protein, FIG. 7D-H
T2 construct: human fibronectin finger 4,5 (Fn F4,5) fragment; made in house; host or cells: HEK293E cells, transient transfection, protein purified from the medium
T2 sequence (P02751 182-276 limits assumed): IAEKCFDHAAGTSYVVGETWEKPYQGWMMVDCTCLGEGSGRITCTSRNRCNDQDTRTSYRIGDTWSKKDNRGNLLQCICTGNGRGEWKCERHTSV
Procedure: (§3) The plates were blocked using Blocking reagent (Roche 1112589). A dilution series of the protein of interest was applied to the coated proteins and wells were subsequently washed using TBS-T (50 mM Tris pH 7.3, 150 mM NaCl and 0.1% Tween20). Bound protein is detected by the FLAG-tag using 1:3000 anti-FLAG-HRP (Sigma A-8592) in PBS-T, or by 1:1000 Ni-NTA-HRP (Qiagen 34530) in PBS-T. The HRP reaction Is performed using the TMB substrate (Biosource 4501103 or Tebu Bio 101TMB100-500), stopped using 10% H2SO4 and absorbance was measured at 450 nm.

[2] = target: T3, LRP cl-IV binding to BSA-AGE (Bos taurus, UniProt P02769); experiment: ELISA, interference with LRP cl-IV binding to BSA-AGE; set-up: species or system human; settings: concentration series, 50 times diluted LRP cl-IV medium
T3 construct: made in house; host or cells: LRP cl-IV: HEK293E/S culture supernatant, 50 times diluted; BSA-AGE: glycated in house and coated
T3 sequence (P02769 25-607): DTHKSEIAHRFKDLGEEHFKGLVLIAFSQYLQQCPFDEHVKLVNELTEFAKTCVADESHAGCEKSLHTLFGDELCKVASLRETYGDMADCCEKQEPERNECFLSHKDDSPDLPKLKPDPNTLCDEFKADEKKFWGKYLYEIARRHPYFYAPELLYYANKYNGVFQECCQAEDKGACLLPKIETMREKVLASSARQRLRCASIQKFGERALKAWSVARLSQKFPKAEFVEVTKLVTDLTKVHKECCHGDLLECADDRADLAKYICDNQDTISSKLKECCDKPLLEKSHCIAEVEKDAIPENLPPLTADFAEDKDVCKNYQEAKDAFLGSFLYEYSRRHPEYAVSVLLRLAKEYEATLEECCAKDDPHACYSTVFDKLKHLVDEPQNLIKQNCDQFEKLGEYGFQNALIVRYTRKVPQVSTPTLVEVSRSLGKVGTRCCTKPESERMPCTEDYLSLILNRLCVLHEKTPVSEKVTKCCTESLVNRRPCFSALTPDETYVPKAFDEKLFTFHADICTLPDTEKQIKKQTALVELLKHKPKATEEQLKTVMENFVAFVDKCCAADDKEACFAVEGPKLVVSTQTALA
Procedure: To test whether amyloid-like crossbeta structure binding compounds tPA, Congo red, Thioflavin T and Thioflavin S interfere with LRP cl-IV binding to BSA-AGE, concentration series of the potential inhibitory amyloid binding moieties were tested in the presence of 50 times diluted medium containing LRP cl-IV. The following inhibitors were used: tPA, Congo red, Thioflavin T (ThT) and Thioflavin S (ThS). As a control to tPA, K2P tPA, which lacks the amyloid-like misfolded protein binding finger domain, was included in the analyses. The influence of tPA and K2P tPA was tested in the presence of 10 mM ε-amino caproic acid to avoid binding of the kringle2 domain of tPA and K2P tPA to lysine- and arginine residues. Binding buffer and K2P tPA served as negative controls in these inhibition studies. The concentration series was measured in triplicate, the values averaged and standard deviations calculated. Background signals obtained with buffer-coated wells were subtracted. Signals obtained with binding of LRP cluster IV to BSA-AGE was set arbitrarily to a reference binding of 100% and signals obtained with the concentration series of misfolded protein binding moieties and K2P tPA were calculated based on this set reference.

[3] = Thioflavin T fluorescence; format: physicochemical; settings: 25 μg ml^−1
Procedure: Fluorescence of ThT-protein/peptide adducts was measured as follows. […] Fluorescence was measured at 485 nm upon excitation at 435 nm. Background signals from buffer, buffer with ThT and protein/peptide solution without ThT were subtracted from corresponding measurements with protein solution incubated with ThT. […] Fluorescence was measured in triplicate on a Hitachi F-4500 fluorescence spectrophotometer (Ltd., Tokyo, Japan).
as §2
To prepare structurally altered ovalbumin (OVA) with amyloid cross-β structure conformation, purified OVA (Sigma, A-7641, lot 071k7094) was heated to 85° C. One mg ml^−1 OVA in 67 mM NaPi buffer pH 7.0, 100 mM NaCl, was heated for two cycles in PCR cups in a PTC-200 thermal cycler (MJ Research, Inc., Waltham, Mass., USA). In each cycle, OVA was heated from 30 to 85° C. at a rate of 5° C./min. Native OVA (nOVA) and heat-denatured OVA (dOVA) were tested in the ThT fluorescence assay and in the Plg-activation assay. In the fluorescence assay and in the Plg-activation assay, 25 and 100 μg ml^−1 nOVA and dOVA were tested, respectively. TEM images of nOVA and dOVA were taken to check for the presence of large aggregates. […] MSA (#126674, Calbiochem) was dissolved in 8 M urea, 100 mM Tris-HCl pH 8.2, at 10 mg ml^−1 final concentration. Dithiothreitol (DTT) was added to a final concentration of 10 mM. Air was replaced by N2 and the solution was incubated for 2 h at room temperature. Then, the solution was transferred to ice and iodoacetamide was added from a 1 M stock to a final concentration of 20 mM. […] Alkyl-MSA was dialyzed against H2O before use. […] In the ThT-fluorescence assay 25 μg ml^−1 nMSA and alkyl-MSA were tested, and in the Plg-activation assay 100 μg ml^−1 was tested. The presence of aggregates or fibrils was analyzed using TEM. […]
Protein therapeutics were obtained from the local hospital pharmacy and analyzed within the expiry limits as stated by the manufacturers.

tPA = target: T4, tPA (Homo sapiens, UniProt P00750); experiment: Plasminogen-activation assay (tPA-mediated Plg to Pls, S-2251); format: biochemical; settings: FIG. 6E, G
T4 construct: purchased Boehringer-Ingelheim (Actilyse, Alteplase)
T4 sequence (P00750 36-562): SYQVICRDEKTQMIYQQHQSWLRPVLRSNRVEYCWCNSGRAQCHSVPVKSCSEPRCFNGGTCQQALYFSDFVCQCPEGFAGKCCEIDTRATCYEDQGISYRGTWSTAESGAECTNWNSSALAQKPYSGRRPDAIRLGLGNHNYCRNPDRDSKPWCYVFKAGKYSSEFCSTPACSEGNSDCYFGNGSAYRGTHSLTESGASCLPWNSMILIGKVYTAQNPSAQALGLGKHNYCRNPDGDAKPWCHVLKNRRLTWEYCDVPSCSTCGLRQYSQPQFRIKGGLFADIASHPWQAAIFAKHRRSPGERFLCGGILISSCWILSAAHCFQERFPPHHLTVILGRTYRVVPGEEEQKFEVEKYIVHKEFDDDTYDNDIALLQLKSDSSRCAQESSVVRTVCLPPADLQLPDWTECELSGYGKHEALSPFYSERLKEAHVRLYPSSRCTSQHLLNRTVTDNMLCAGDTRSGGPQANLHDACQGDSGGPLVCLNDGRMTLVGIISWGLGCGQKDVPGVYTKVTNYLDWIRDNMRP
Procedure: as §1, §2
Purification of β2-glycoprotein I (β2GPI) was performed according to established methods^11,12. Recombinant human β2GPI was made using insect cells and purified as described^11. Plasma derived β2GPI as used in a factor XII ELISA, the chromogenic Plg-activation assay and in the anti-phospholipid syndrome antibody ELISA (see below), was purified from fresh human plasma as described^12.
To prepare structurally altered ovalbumin (OVA) with amyloid cross-β structure conformation, purified OVA (Sigma, A-7641, lot 071k7094) was heated to 85° C. One mg ml^−1 OVA in 67 mM NaPi buffer pH 7.0, 100 mM NaCl, was heated for two cycles in PCR cups in a PTC-200 thermal cycler (MJ Research, Inc., Waltham, Mass., USA). In each cycle, OVA was heated from 30 to 85° C. at a rate of 5° C./min. Native OVA (nOVA) and heat-denatured OVA (dOVA) were tested in the ThT fluorescence assay and in the Plg-activation assay. In the fluorescence assay and in the Plg-activation assay, 25 and 100 μg ml^−1 nOVA and dOVA were tested, respectively. TEM images of nOVA and dOVA were taken to check for the presence of large aggregates. […] MSA (#126674, Calbiochem) was dissolved in 8 M urea, 100 mM Tris-HCl pH 8.2, at 10 mg ml^−1 final concentration.

human BiP = target: T5, human BiP (Homo sapiens, UniProt P11021); experiment: ELISA, binding of BiP to coated (mis)folded proteins; settings: coated protein
T5 construct: made in house; host or cells: HEK293E cells, transient transfection, protein purified from the medium
T5 sequence (P11021 19-654): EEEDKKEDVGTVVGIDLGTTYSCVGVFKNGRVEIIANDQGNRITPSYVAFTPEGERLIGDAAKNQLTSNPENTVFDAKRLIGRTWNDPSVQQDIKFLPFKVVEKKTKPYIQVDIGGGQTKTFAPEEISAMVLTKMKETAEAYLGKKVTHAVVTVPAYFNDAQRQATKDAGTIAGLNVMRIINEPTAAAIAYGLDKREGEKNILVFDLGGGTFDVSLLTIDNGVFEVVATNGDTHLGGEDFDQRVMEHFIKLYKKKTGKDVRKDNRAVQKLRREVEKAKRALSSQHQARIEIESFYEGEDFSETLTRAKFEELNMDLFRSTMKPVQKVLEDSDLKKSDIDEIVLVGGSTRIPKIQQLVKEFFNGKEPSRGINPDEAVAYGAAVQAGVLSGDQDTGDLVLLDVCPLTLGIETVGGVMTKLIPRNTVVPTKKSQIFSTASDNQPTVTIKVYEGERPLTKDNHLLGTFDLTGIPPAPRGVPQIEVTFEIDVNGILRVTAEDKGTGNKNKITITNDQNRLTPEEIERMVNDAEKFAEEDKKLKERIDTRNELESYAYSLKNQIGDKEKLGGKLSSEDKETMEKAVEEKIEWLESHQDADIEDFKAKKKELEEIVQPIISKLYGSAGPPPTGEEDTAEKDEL
Procedure: as §3

Molecule: mIAPP: non-amyloid control peptide
factor XII activation (kallikrein, Chromozym-PK conversion) (factor XII): do not activate factor XII

Molecule: CC[C@H](C)[C@H](NC(=O)CNC(=O)[C@@H](NC(=O)[C@H](CC(=O)O)NC(=O)[C@@H](NC(=O)[C@H](CC(=O)O)NC(=O)[C@@H](NC(=O)[C@H](CCC(=O)O)NC(=O)[C@H](CC(C)C)NC(=O)[C@H](CCCNC(=N)N)NC(=O)[C@@H](N)CCCCN)C(C)C)[C@@H](C)CC)[C@@H](C)CC)C(=O)N[C@@H](CCCNC(=N)N)C(=O)N[C@@H](CO)C(=O)O [FP13 K157G] (H-KRLEVDIDIGIRS-OH)
factor XII activation (kallikrein, Chromozym-PK conversion) (factor XII): stimulate the activation of factor XII

Molecule: Cc1ccc2c(c1)sc(-c1ccc(N(C)C)cc1)[n+]2C [ThT, Thioflavin T]
influence on binding of LRP cl-IV to BSA-AGE [2]: do not interfere

Molecule: Thioflavin S [ThS]
influence on binding of LRP cl-IV to BSA-AGE [2]: inhibit binding of LRP cl-IV to BSA-AGE to a large extent

Molecule: Nc1c(/N=N/c2ccc(-c3ccc(/N=N/c4cc(S(=O)(=O)O)c5ccccc5c4N)cc3)cc2)cc(S(=O)(=O)O)c2ccccc12 [Congo red]
influence on binding of LRP cl-IV to BSA-AGE [2]: inhibit binding of LRP cl-IV to BSA-AGE to a large extent

The next lines start with results.

affinity of fibronectin F4,5 (detection anti-FLAG HRP) [1]: high affinity
Molecule: reduced and alkylated lysozyme: reduced and alkylated lysozyme

tPA activating potential of native and denatured glucagon and Etanercept (tPA): potent activator of tPA
Molecule: heat-denatured glucagon: glucagon kept at 37° C. at low pH in HCl
ThT fluorescence enhancement of native and denatured proteins [3]: enhanced ThT fluorescence to a large extent

binding of BiP (detection anti-FLAG-HRP) (human BiP): not
Molecule: heat-denatured BSA: heat-denatured bovine serum albumin
